Test results reported in patent publication US11819556B2, “Stabilized compositions of radionuclides and uses thereof” (RayzeBio, Inc., priority 2021, dated 2023).

Tests used:
Assay type in all cases: physicochemical
[1] = Radioactivity concentration optimization: radio-TLC purity; details: 100 mM sodium ascorbate pH 5.80, 0.05 mg/ml DTPA, 25° C.
Procedure: The mixture was kept at room temperature (25° C.) and protected from light to prevent photodegradation. At different time points, purity of [^225Ac]Ac-DOTA-TATE in the formulated dose were measured by radio-TLC as described in the table below: […]

[2] = DTPA concentration optimization: radio-TLC purity; details: 20 μCi/ml, 100 mM sodium ascorbate pH 5.80, 25° C.
Procedure: (§1) The mixture was kept at room temperature (25° C.). At different time points, radioactive components of the formulated dose were measured by radio-TLC as described in the table below: […]

[3] = Sodium ascorbate concentration optimization: radio-TLC purity; details: 25° C.
Procedure: as §1

(2,2′,2″-(10-(2-4(R)-1-(((4R,7S,10S,13R,16S,19R)-13-((1H-indol-3-yl)methyl)-10-(4-aminobutyl)-4-(((1S,2R)-1-carboxy-2-hydroxypropyl)carbamoyl)-16-(4-hydroxybenzyl)-7-((R)-1-hydroxyethyl)-6,9,12,15,18-pentaoxo-1,2-dithia-5,8,11,14,17-pentaazacycloicosan-19-yl)amino)-1-oxo-3-phenylpropan-2-yl)amino)-2-oxoethyl)-1,4,7,10-tetraazacyclododecane-1,4,7-triyl)triacetate; actinium-225(3+)) [[^225Ac]Ac-DOTA-TATE]
Percentage of ^225Ac present in [^225Ac]Ac-DOTA-TATE ([1]; 15 μCi/ml, 0 hour): 99.37% | Percentage of ^225Ac present in [^225Ac]Ac-DOTA-TATE ([1]; 15 μCi/ml, 24 hours): 96.92% | Percentage of ^225Ac present in [^225Ac]Ac-DOTA-TATE ([1]; 15 μCi/ml, 48 hours): 96.08% | Percentage of ^225Ac present in [^225Ac]Ac-DOTA-TATE ([1]; 15 μCi/ml, 72 hours): 98.74% | Percentage of ^225Ac present in [^225Ac]Ac-DOTA-TATE ([1]; 15 μCi/ml, 96 hours): 94.83% | Percentage of ^225Ac present in [^225Ac]Ac-DOTA-TATE ([1]; 15 μCi/ml, 120 hours): 93.49% | Percentage of ^225Ac present in [^225Ac]Ac-DOTA-TATE ([1]; 32 μCi/ml, 0 hour): 99.39% | Percentage of ^225Ac present in [^225Ac]Ac-DOTA-TATE ([1]; 32 μCi/ml, 24 hours): 97.92% | Percentage of ^225Ac present in [^225Ac]Ac-DOTA-TATE ([1]; 32 μCi/ml, 48 hours): 97.13% | Percentage of ^225Ac present in [^225Ac]Ac-DOTA-TATE ([1]; 32 μCi/ml, 72 hours): 95.31% | Percentage of ^225Ac present in [^225Ac]Ac-DOTA-TATE ([1]; 32 μCi/ml, 96 hours): 92.52% | Percentage of ^225Ac present in [^225Ac]Ac-DOTA-TATE ([1]; 32 μCi/ml, 120 hours): 85.90% | Percentage of ^225Ac present in [^225Ac]Ac-DOTA-TATE ([1]; 68 μCi/ml, 0 hour): 99.06% | Percentage of ^225Ac present in [^225Ac]Ac-DOTA-TATE ([1]; 68 μCi/ml, 24 hours): 98.22% | Percentage of ^225Ac present in [^225Ac]Ac-DOTA-TATE ([1]; 68 μCi/ml, 48 hours): 95.93% | Percentage of ^225Ac present in [^225Ac]Ac-DOTA-TATE ([1]; 68 μCi/ml, 72 hours): 95.36% | Percentage of ^225Ac present in [^225Ac]Ac-DOTA-TATE ([1]; 68 μCi/ml, 96 hours): 86.92% | Percentage of ^225Ac present in [^225Ac]Ac-DOTA-TATE ([1]; 126 μCi/ml, 0 hour): 99.11% | Percentage of ^225Ac present in [^225Ac]Ac-DOTA-TATE ([1]; 126 μCi/ml, 24 hours): 95.77% | Percentage of ^225Ac present in [^225Ac]Ac-DOTA-TATE ([1]; 126 μCi/ml, 48 hours): 84.99% | Percentage of ^225Ac present in [^225Ac]Ac-DOTA-TATE ([1]; 301 μCi/ml, 0 hour): 99.09% | Percentage of ^225Ac present in [^225Ac]Ac-DOTA-TATE ([1]; 301 μCi/ml, 24 hours): 97.53% | Percentage of ^225Ac present in [^225Ac]Ac-DOTA-TATE ([1]; 301 μCi/ml, 48 hours): 88.78% | Percentage of ^225Ac present in [^225Ac]Ac-DOTA-TATE ([1]; 550 μCi/ml, 0 hour): 98.87% | Percentage of ^225Ac present in [^225Ac]Ac-DOTA-TATE ([1]; 550 μCi/ml, 24 hours): 97.04% | Percentage of ^225Ac present in [^225Ac]Ac-DOTA-TATE ([1]; 550 μCi/ml, 48 hours): 85.63% | Percentage of ^225Ac present in [^225Ac]Ac-DOTA-TATE ([2]; DTPA 0.05 mg/ml, 0 hour): 98.74% | Percentage of ^225Ac present in [^225Ac]Ac-DOTA-TATE ([2]; DTPA 0.05 mg/ml, 24 hours): 97.67% | Percentage of ^225Ac present in [^225Ac]Ac-DOTA-TATE ([2]; DTPA 0.05 mg/ml, 48 hours): 95.34% | Percentage of ^225Ac present in [^225Ac]Ac-DOTA-TATE ([2]; DTPA 0.05 mg/ml, 72 hours): 94.62% | Percentage of ^225Ac present in [^225Ac]Ac-DOTA-TATE ([2]; DTPA 0.1 mg/ml, 0 hour): 97.52% | Percentage of ^225Ac present in [^225Ac]Ac-DOTA-TATE ([2]; DTPA 0.1 mg/ml, 24 hours): 98.30% | Percentage of ^225Ac present in [^225Ac]Ac-DOTA-TATE ([2]; DTPA 0.1 mg/ml, 48 hours): 96.74% | Percentage of ^225Ac present in [^225Ac]Ac-DOTA-TATE ([2]; DTPA 0.1 mg/ml, 72 hours): 94.36% | Percentage of ^225Ac present in [^225Ac]Ac-DOTA-TATE ([2]; DTPA 0.3 mg/ml, 0 hour): 98.06% | Percentage of ^225Ac present in [^225Ac]Ac-DOTA-TATE ([2]; DTPA 0.3 mg/ml, 24 hours): 97.19% | Percentage of ^225Ac present in [^225Ac]Ac-DOTA-TATE ([2]; DTPA 0.3 mg/ml, 48 hours): 96.11% | Percentage of ^225Ac present in [^225Ac]Ac-DOTA-TATE ([2]; DTPA 0.3 mg/ml, 72 hours): 93.60% | Percentage of ^225Ac present in [^225Ac]Ac-DOTA-TATE ([2]; DTPA 0.5 mg/ml, 0 hour): 98.40% | Percentage of ^225Ac present in [^225Ac]Ac-DOTA-TATE ([2]; DTPA 0.5 mg/ml, 24 hours): 97.28% | Percentage of ^225Ac present in [^225Ac]Ac-DOTA-TATE ([2]; DTPA 0.5 mg/ml, 48 hours): 95.07% | Percentage of ^225Ac present in [^225Ac]Ac-DOTA-TATE ([2]; DTPA 0.5 mg/ml, 72 hours): 92.73% | Percentage of ^225Ac present in [^225Ac]Ac-DOTA-TATE ([2]; DTPA 0.8 mg/ml, 0 hour): 98.02% | Percentage of ^225Ac present in [^225Ac]Ac-DOTA-TATE ([2]; DTPA 0.8 mg/ml, 24 hours): 97.60% | Percentage of ^225Ac present in [^225Ac]Ac-DOTA-TATE ([2]; DTPA 0.8 mg/ml, 48 hours): 96.57% | Percentage of ^225Ac present in [^225Ac]Ac-DOTA-TATE ([2]; DTPA 0.8 mg/ml, 72 hours): 93.11% | Percentage of ^225Ac present in [^225Ac]Ac-DOTA-TATE ([2]; DTPA 1.0 mg/ml, 0 hour): 98.25% | Percentage of ^225Ac present in [^225Ac]Ac-DOTA-TATE ([2]; DTPA 1.0 mg/ml, 24 hours): 97.37% | Percentage of ^225Ac present in [^225Ac]Ac-DOTA-TATE ([2]; DTPA 1.0 mg/ml, 48 hours): 96.14% | Percentage of ^225Ac present in [^225Ac]Ac-DOTA-TATE ([2]; DTPA 1.0 mg/ml, 72 hours): 94.14% | Percentage of ^225Ac present in [^225Ac]Ac-DOTA-TATE ([3]; sodium ascorbate 1 mM, 0 hour, Radioactivity concentration at 1 mCi/ml): 99.76% | Percentage of ^225Ac present in [^225Ac]Ac-DOTA-TATE ([3]; sodium ascorbate 1 mM, 24 hours, Radioactivity concentration at 1 mCi/ml): 91.11% | Percentage of ^225Ac present in [^225Ac]Ac-DOTA-TATE ([3]; sodium ascorbate 1 mM, 48 hours, Radioactivity concentration at 1 mCi/ml): 52.06% | Percentage of ^225Ac present in [^225Ac]Ac-DOTA-TATE ([3]; sodium ascorbate 10 mM, 0 hour, Radioactivity concentration at 1 mCi/ml): 99.78% | Percentage of ^225Ac present in [^225Ac]Ac-DOTA-TATE ([3]; sodium ascorbate 10 mM, 24 hours, Radioactivity concentration at 1 mCi/ml): 92.21% | Percentage of ^225Ac present in [^225Ac]Ac-DOTA-TATE ([3]; sodium ascorbate 10 mM, 48 hours, Radioactivity concentration at 1 mCi/ml): 86.11% | Percentage of ^225Ac present in [^225Ac]Ac-DOTA-TATE ([3]; sodium ascorbate 100 mM, 0 hour, 0.02 mCi/ml, 0.05 mg/ml DTPA): 99.15% | Percentage of ^225Ac present in [^225Ac]Ac-DOTA-TATE ([3]; sodium ascorbate 100 mM, 24 hours, 0.02 mCi/ml, 0.05 mg/ml DTPA): 98.76% | Percentage of ^225Ac present in [^225Ac]Ac-DOTA-TATE ([3]; sodium ascorbate 100 mM, 48 hours, 0.02 mCi/ml, 0.05 mg/ml DTPA): 96.94% | Percentage of ^225Ac present in [^225Ac]Ac-DOTA-TATE ([3]; sodium ascorbate 100 mM, 72 hours, 0.02 mCi/ml, 0.05 mg/ml DTPA): 96.16% | Percentage of ^225Ac present in [^225Ac]Ac-DOTA-TATE ([3]; sodium ascorbate 100 mM, 96 hours, 0.02 mCi/ml, 0.05 mg/ml DTPA): 95.84% | Percentage of ^225Ac present in [^225Ac]Ac-DOTA-TATE ([3]; sodium ascorbate 100 mM, 120 hours, 0.02 mCi/ml, 0.05 mg/ml DTPA): 95.44% | Percentage of ^225Ac present in [^225Ac]Ac-DOTA-TATE ([3]; sodium ascorbate 100 mM, 144 hours, 0.02 mCi/ml, 0.05 mg/ml DTPA): 95.34% | Percentage of ^225Ac present in [^225Ac]Ac-DOTA-TATE ([3]; sodium ascorbate 200 mM, 0 hour, 0.02 mCi/ml, 0.05 mg/ml DTPA): 99.22% | Percentage of ^225Ac present in [^225Ac]Ac-DOTA-TATE ([3]; sodium ascorbate 200 mM, 24 hours, 0.02 mCi/ml, 0.05 mg/ml DTPA): 98.16%
